The data set concerns the molecule itself. Put plainly: SEC. A general note: SEC sorts molecules by how far they enter the pores of the column.

B1: unphosphorylated kinase domain of With No Lysine(K) kinase-3 (WNK3) (domain or fragment)
chain: not shown
Usually stoichiometry N stands for the number of molecules, sites or subunits per partner or assembly. Regarding B1, the “stoichiometry N” value stood at 2.

Source of the values: publication doi:10.1101/435008 (bioRxiv, 2019).
